Results as given in patent publication US20060115482A1, “Modifications of histone proteins as indicators of cell proliferation and differentiation” (The Regents of the University of California, priority 2004, published 2006).

System: H2B-S33
Test: In vitro kinase assay (γ32P-ATP, SDS-PAGE, autoradiography, scintillation counting)
Assay type: biochemical, Drosophila
Conditions: for Turnover values for phosphorylation of H2B-S33: 3 μg enzyme
Method: Kinase reactions were programmed with 1 μg RAP74, 1 μg recombinant histone, 2 μg polynucleosomes, 2 μg histone octamers, or 300 ng histone peptide, and contained 400 ng endogenous TFIID or 250 ng recombinant TAF1 derivatives and 0.25 μCi γ^32P-ATP. Reactions were performed in 20 μl kinase buffer (25 mM Hepes (pH 7.6), 10% glycerol, and 400 mM NaCl) for 25 min at 25° C. Reaction products were analyzed by SDS-PAGE using 8%—(for recombinant proteins), 15%—(for histones), or 18% (for peptides) gels. After electrophoresis, gels were dried and exposed to X-ray film.
To quantify kinase reactions, reactions products were separated by SDS-PAGE and detected by coomassie blue staining. Radiolabeled H2B was detected by autoradiography, excised from the gel, and analyzed by scintillation counting.
To measure the kinase activity of TFIID, TAF1, CTK, and mutant CTK-derivatives, reaction products of in vitro kinase assays were separated by SDS-PAGE and stained with coomassie blue. Radiolabeled H2B, H2BT and controls were excised from the gel and incorporation of radioactivity was determined by scintillation counting. Turnover values for phosphorylation of H2B-S33 were determined by measuring incorporation of radiolabeled phosphate groups into H2B in the presence of 3 μg TAF1, TFIID, or CTK-derivatives and 3 μg H2B or 12 μg nucleosomes. The turnover values were: TFIID (nucleosomes: 3.3/sec; H2B: 2.6/sec); TAF1: (nucleosomes: 2.5/sec; H2B: 2.5/sec); CTK: (nucleosomes: 2.6/sec; H2B: 4.4/sec).

Substance | H2B phosphorylation in vitro (qualitative) (autoradiography) | kinase activity, % of the activity determined for TFIID, TAF1 and CTK (radiolabeled H2B, scintillation counting) | Turnover values for phosphorylation of H2B-S33 (substrate 3 μg H2B) [s⁻¹] | Turnover values for phosphorylation of H2B-S33 (substrate 12 μg nucleosomes) [s⁻¹]
TAF1ΔCTK: TAF1 truncated by stop codon behind amino acid 1728, deleting the CTK downstream of the DBD | does not phosphorylate H2B in vitro | less than 0.1% |  | 
TAF1: subunit of TFIID that has kinase activity; recombinant Flag-tagged Drosophila protein |  |  | 2.5 | 2.5
